Measured values taken from patent US20230002480A1.

Assays:
Assay in all cases: cell-based or functional assay
[1] = target: HIV-1 Env of pseudovirus SC422661.8 (HIV-1)
[2] = target: HIV-1 Env of pseudovirus THRO4156.18 (HIV-1)
[3] = target: HIV-1 Env of pseudovirus T257-31 (HIV-1)
[4] = target: HIV-1 Env of pseudovirus ZM109F.PB4 (HIV-1)
[5] = target: HIV-1 Env of pseudovirus Ce0682_E4 (HIV-1)
[6] = target: HIV-1 Env of pseudovirus CAP45.2.00.G3 (HIV-1)
[7] = target: HIV-1 Env of pseudovirus Q842.d12 (HIV-1)
[8] = target: HIV-1 Env of pseudovirus 62357_14_D3_4589 (HIV-1)
[9] = target: HIV-1 Env of pseudovirus 1394C9G1(Rev-) (HIV-1)
[10] = target: HIV-1 Env of pseudovirus 0260.v5.c36 (HIV-1)
[11] = target: HIV-1 Env of pseudovirus Ce2010_F5 (HIV-1)
[12] = target: HIV-1 Env of pseudovirus 6244_13_B5_4576 (HIV-1)
[13] = target: HIV-1 Env of pseudovirus 191955_A11 (HIV-1)
[14] = target: HIV-1 Env of pseudovirus Du422.1 (HIV-1)
[15] = target: HIV-1 Env of pseudovirus Du172.17 (HIV-1)
[16] = target: HIV-1 Env of pseudovirus ZM214M.PL15 (HIV-1)
[17] = target: HIV-1 Env of pseudovirus CNE58 (HIV-1)
[18] = target: HIV-1 Env of pseudovirus CNE30 (HIV-1)
[19] = target: HIV-1 Env of pseudovirus 246F C1G (HIV-1)
[20] = target: HIV-1 Env of pseudovirus CNE20 (HIV-1)
[21] = target: HIV-1 Env of pseudovirus 1054_07_TC4_1499 (HIV-1)
[22] = target: HIV-1 Env of pseudovirus Du156.12 (HIV-1)

10-1074 (antibody)
IC50, titer in TZM.bl cells [1]: 0.091 µg/mL | IC80, titer in TZM.bl cells [1]: 0.418 µg/mL | IC50, titer in TZM.bl cells [2]: > 50 µg/mL | IC80, titer in TZM.bl cells [2]: > 50 µg/mL | IC50, titer in TZM.bl cells [3]: > 50 µg/mL | IC80, titer in TZM.bl cells [3]: > 50 µg/mL | IC50, titer in TZM.bl cells [4]: > 50 µg/mL | IC80, titer in TZM.bl cells [4]: > 50 µg/mL | IC50, titer in TZM.bl cells [5]: > 50 µg/mL | IC80, titer in TZM.bl cells [5]: > 50 µg/mL | IC50, titer in TZM.bl cells [6]: > 50 µg/mL | IC80, titer in TZM.bl cells [6]: > 50 µg/mL | IC50, titer in TZM.bl cells [7]: > 50 µg/mL | IC80, titer in TZM.bl cells [7]: > 50 µg/mL | IC50, titer in TZM.bl cells [8]: > 50 µg/mL | IC80, titer in TZM.bl cells [8]: > 50 µg/mL | IC50, titer in TZM.bl cells [9]: 0.05 µg/mL | IC80, titer in TZM.bl cells [9]: 0.191 µg/mL | IC50, titer in TZM.bl cells [10]: 0.099 µg/mL | IC80, titer in TZM.bl cells [10]: 0.16 µg/mL | IC50, titer in TZM.bl cells [11]: > 50 µg/mL | IC80, titer in TZM.bl cells [11]: > 50 µg/mL | IC50, titer in TZM.bl cells [12]: 0.202 µg/mL | IC80, titer in TZM.bl cells [12]: 0.922 µg/mL | IC50, titer in TZM.bl cells [13]: > 50 µg/mL | IC80, titer in TZM.bl cells [13]: > 50 µg/mL | IC50, titer in TZM.bl cells [14]: 0.045 µg/mL | IC80, titer in TZM.bl cells [14]: 0.166 µg/mL | IC50, titer in TZM.bl cells [15]: 0.121 µg/mL | IC80, titer in TZM.bl cells [15]: 0.43 µg/mL | IC50, titer in TZM.bl cells [16]: 0.174 µg/mL | IC80, titer in TZM.bl cells [16]: 2.37 µg/mL | IC50, titer in TZM.bl cells [17]: 0.267 µg/mL | IC80, titer in TZM.bl cells [17]: 0.968 µg/mL | IC50, titer in TZM.bl cells [18]: 0.363 µg/mL | IC80, titer in TZM.bl cells [18]: 1.2 µg/mL | IC50, titer in TZM.bl cells [19]: 0.022 µg/mL | IC80, titer in TZM.bl cells [19]: 0.111 µg/mL | IC50, titer in TZM.bl cells [20]: < 0.001 µg/mL | IC80, titer in TZM.bl cells [20]: 0.005 µg/mL | IC50, titer in TZM.bl cells [21]: 0.129 µg/mL | IC80, titer in TZM.bl cells [21]: 0.563 µg/mL | IC50, titer in TZM.bl cells [22]: 0.015 µg/mL | IC80, titer in TZM.bl cells [22]: 0.076 µg/mL

10E8 (antibody)
IC50, titer in TZM.bl cells [1]: 0.445 µg/mL | IC80, titer in TZM.bl cells [1]: 2.71 µg/mL | IC50, titer in TZM.bl cells [2]: 0.156 µg/mL | IC80, titer in TZM.bl cells [2]: 0.884 µg/mL | IC50, titer in TZM.bl cells [3]: 0.88 µg/mL | IC80, titer in TZM.bl cells [3]: 5.78 µg/mL | IC50, titer in TZM.bl cells [4]: 0.295 µg/mL | IC80, titer in TZM.bl cells [4]: 1.89 µg/mL | IC50, titer in TZM.bl cells [5]: 1.22 µg/mL | IC80, titer in TZM.bl cells [5]: 7.71 µg/mL | IC50, titer in TZM.bl cells [6]: 1.82 µg/mL | IC80, titer in TZM.bl cells [6]: > 10 µg/mL | IC50, titer in TZM.bl cells [7]: 4.19 µg/mL | IC80, titer in TZM.bl cells [7]: > 10 µg/mL | IC50, titer in TZM.bl cells [8]: 0.119 µg/mL | IC80, titer in TZM.bl cells [8]: 1.06 µg/mL | IC50, titer in TZM.bl cells [9]: 0.963 µg/mL | IC80, titer in TZM.bl cells [9]: 5.33 µg/mL | IC50, titer in TZM.bl cells [10]: > 10 µg/mL | IC80, titer in TZM.bl cells [10]: > 10 µg/mL | IC50, titer in TZM.bl cells [11]: 1.84 µg/mL | IC80, titer in TZM.bl cells [11]: 8.61 µg/mL | IC50, titer in TZM.bl cells [12]: 0.086 µg/mL | IC80, titer in TZM.bl cells [12]: 0.809 µg/mL | IC50, titer in TZM.bl cells [13]: 0.68 µg/mL | IC80, titer in TZM.bl cells [13]: 3.53 µg/mL | IC50, titer in TZM.bl cells [14]: 0.351 µg/mL | IC80, titer in TZM.bl cells [14]: 1.88 µg/mL | IC50, titer in TZM.bl cells [15]: 0.109 µg/mL | IC80, titer in TZM.bl cells [15]: 0.837 µg/mL | IC50, titer in TZM.bl cells [16]: 1.96 µg/mL | IC80, titer in TZM.bl cells [16]: > 10 µg/mL | IC50, titer in TZM.bl cells [17]: 1.29 µg/mL | IC80, titer in TZM.bl cells [17]: 8.27 µg/mL | IC50, titer in TZM.bl cells [18]: 1.56 µg/mL | IC80, titer in TZM.bl cells [18]: 9.84 µg/mL | IC50, titer in TZM.bl cells [19]: 2.22 µg/mL | IC80, titer in TZM.bl cells [19]: 9.94 µg/mL | IC50, titer in TZM.bl cells [20]: 1.25 µg/mL | IC80, titer in TZM.bl cells [20]: 6.58 µg/mL | IC50, titer in TZM.bl cells [21]: 0.046 µg/mL | IC80, titer in TZM.bl cells [21]: 0.305 µg/mL | IC50, titer in TZM.bl cells [22]: 0.034 µg/mL | IC80, titer in TZM.bl cells [22]: 0.144 µg/mL
